According to patent US20130189283A1 (Amgen, published 2013):

B1: Antibody 10183 (antibody, V domains shown)
VH: QVQLQESGPGLVKPSQTLSLTCTVSGGSISSGDYFWSWIRQLPGKGLEWIGHIHNSGTTYYNPSLKSRVTISVDTSKKQFSLRLSSVTAADTAVYYCARDRGGDYAYGMDVWGQGTTVTVSS
VL: EIVLTQSPGTLSLSPGERATLSCRASQGISRSRLAWYQQKPGQAPSLLIYGASSRATGIPDRFSGSGSGTDFTLTISRLEPEDFAVYYCQQFGSSPWTFGQGTKVEIK
B2: Antibody 10184 (antibody, V domains shown)
VH: QVQLQESGPGLVKPSQTLSLTCTVSGGSISSGDYFWSWIRQLPGKGLEWIGHIHNSGTTYYNPSLKSRVTISVDTSKKQFSLRLSSVTAADTAVYYCARDRGGDYRYGMDVWGQGTTVTVSS
VL: EIVLTQSPGTLSLSPGERATLSCRASQGISRSRLAWYQQKPGQAPSLLIYGASSRATGIPDRFSGSGSGTDFTLTISRLEPEDFAVYYCQQFGSSPWTFGQGTKVEIK
B3: Antibody 4341 (antibody, human IgG1, kappa, V domains shown)
VH: QVQLQESGPGLVKPSQTLSLTCTVSGGSISSGDYFWSWIRQLPGKGLEWIGHIHNSGTTYYNPSLKSRVTISVDTSKKQFSLRLSSVTAADTAVYYCARDRGGDYAYGMDVWGQGTTVTVSS
VL: EIVLTQSPGTLSLSPGERATLSCRASQGISRSELAWYQQKPGQAPSLLIYGASSRATGIPDRFSGSGSGTDFTLTISRLEPEDFAVYYCQQFGSSPWTFGQGTKVEIKR
notes: also called LC:Y53E)
B4: Antibody 4241 (antibody, human IgG1, kappa, V domains shown)
VH: QVQLQESGPGLVKPSQTLSLTCTVSGGSISSGDYFWSWIRQLPGKGLEWIGHIHNSGTTYYNPSLKSRVTISVDTSKKQFSLRLSSVTAADTAVYYCARDRGGDYEYGMDVWGQGTTVTVSS
VL: EIVLTQSPGTLSLSPGERATLSCRASQGISRSALAWYQQKPGQAPSLLIYGASSRATGIPDRFSGSGSGTDFTLTISRLEPEDFAVYYCQQFGSSPWTFGQGTKVEIKR
notes: also called LC:Y53A)
B5: Antibody 16435 (antibody, human IgG2, kappa, V domains shown)
VH: QVQLVQSGAEVKKPGASVKVSCKASGYTFTRYGISWVRQAPGQGLEWMGWISTYSGNTNYAQKLQGRVTMTTDTSTSTAYMELRSLRSDDTAVYYCARAQLYFDYWGQGTLVTVSS
VL: EIVMTQSPATLSVSPGERATLSCRASQSVSSNLAWFQQKPGQAPRLLIYDASTRATGVPARFSGSGSGTEFTLTISSLQSEDFAVYYCQQYDNWPLTFGGGTKVEIKR
notes: also called LC: P66L, D90E
B6: Antibody 16444 (antibody, human IgG2, kappa, V domains shown)
VH: QVQLVQSGAEVKKPGASVKVSCKASGYTFTRYGISWVRQAPGQGLEWMGWISTYSGNTNYAQKLQGRVTMTTDTSTSTAYMELRSLRSDDTAVYYCARAQQYFDYWGQGTLVTVSS
VL: EIVMTQSPATLSVSPGERATLSCRASQSVSSNLAWFQQKPGQAPRLLIYDASTRATGVPARFSGSGSGTEFTLTISSLQSEDFAVYYCQQYDNAPLTFGGGTKVEIKR
notes: also called LC: P66L, D90E, W114A
B7: Antibody 16438 (antibody, V domains shown)
VH: QVQLVQSGAEVKKPGASVKVSCKASGYTFTRYGISWVRQAPGQGLEWMGWISTYSGNTNYAQKLQGRVTMTTDTSTSTAYMELRSLRSDDTAVYYCARRQQYFDYWGQGTLVTVSS
VL: EIVMTQSPATLSVSPGERATLSCRASQSVSSNLAWFQQKPGQAPRLLIYDASTRATGVPARFSGSGSGTEFTLTISSLQSEDFAVYYCQQYDNWPLTFGGGTKVEIK
B8: Antibody 16439 (antibody, V domains shown)
VH: QVQLVQSGAEVKKPGASVKVSCKASGYTFTRYGISWVRQAPGQGLEWMGWISTYSGNTNYAQKLQGRVTMTTDTSTSTAYMELRSLRSDDTAVYYCARRQQYFDYWGQGTLVTVSS
VL: EIVMTQSPATLSVSPGERATLSCRASQSVSSNLAWFQQKPGQAPRLLIYDASTRATGVPARFSGSGSGTEFTLTISSLQSEDFAVYYCQQYDNAPLTFGGGTKVEIK
B9: Antibody 16440 (antibody, V domains shown)
VH: QVQLVQSGAEVKKPGASVKVSCKASGYTFTRYGISWVRQAPGQGLEWMGWISTYSGNTNYAQKLQGRVTMTTDTSTSTAYMELRSLRSDDTAVYYCARAQQYFDYWGQGTLVTVSS
VL: EIVMTQSPATLSVSPGERATLSCRASQSVSSNLAWFQQKPGQAPRPLIYDASTRATGVPARFSGSGSGTDFTLTISSLQSEDFAVYYCQQYDNWPLTFGGGTKVEIK
B10: Antibody 16441 (antibody, V domains shown)
VH: QVQLVQSGAEVKKPGASVKVSCKASGYTFTRYGISWVRQAPGQGLEWMGWISTYSGNTNYAQKLQGRVTMTTDTSTSTAYMELRSLRSDDTAVYYCARAQQYFDYWGQGTLVTVSS
VL: EIVMTQSPATLSVSPGERATLSCRASQSVSSNLAWFQQKPGQAPRLLIYDASTRATGVPARFSGSGSGTEFTLTISSLQSEDFAVYYCQQYDNWPLTFGGGTKVEIK

Each binder was assayed against T1, Soluble human TR2 (huTR2 long-huFc (IgG1)) (human) (assay: BIAcore solution equilibrium assay: antibody incubated with TR2, free TR2 read on immobilised antibody 16449).
T1 construct: also called Trail Receptor 2; TRAIL (huTR2)
T1 sequence (chain, as listed by the source limits assumed): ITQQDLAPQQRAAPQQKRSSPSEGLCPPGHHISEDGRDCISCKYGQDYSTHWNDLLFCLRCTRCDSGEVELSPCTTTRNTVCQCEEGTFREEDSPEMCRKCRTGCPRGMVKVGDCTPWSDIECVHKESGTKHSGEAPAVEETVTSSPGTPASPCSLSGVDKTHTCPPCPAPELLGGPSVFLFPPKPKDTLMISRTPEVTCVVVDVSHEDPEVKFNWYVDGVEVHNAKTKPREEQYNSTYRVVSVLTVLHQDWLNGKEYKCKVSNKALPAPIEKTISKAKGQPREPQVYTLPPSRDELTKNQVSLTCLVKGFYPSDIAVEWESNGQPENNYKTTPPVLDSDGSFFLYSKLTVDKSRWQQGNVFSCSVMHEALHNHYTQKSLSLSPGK

Binder	binding result
B1	no binding (tested: 50 µM antibody with 10 nM TR2)
B2	no binding (tested: 50 µM antibody with 10 nM TR2)
B3	no binding (tested: 50 µM antibody with 10 nM TR2)
B4	no binding (tested: 50 µM antibody with 10 nM TR2)

Each binder was assayed against T2, Soluble human IL-17R (huIL-17R-FpH) (human, UniProt Q96F46 33-320) (assay: BIAcore solution equilibrium assay: antibody incubated with IL-17R, free IL-17R read on immobilised antibody 16429).
T2 construct: also called IL-17R extracellular domain
T2 sequence: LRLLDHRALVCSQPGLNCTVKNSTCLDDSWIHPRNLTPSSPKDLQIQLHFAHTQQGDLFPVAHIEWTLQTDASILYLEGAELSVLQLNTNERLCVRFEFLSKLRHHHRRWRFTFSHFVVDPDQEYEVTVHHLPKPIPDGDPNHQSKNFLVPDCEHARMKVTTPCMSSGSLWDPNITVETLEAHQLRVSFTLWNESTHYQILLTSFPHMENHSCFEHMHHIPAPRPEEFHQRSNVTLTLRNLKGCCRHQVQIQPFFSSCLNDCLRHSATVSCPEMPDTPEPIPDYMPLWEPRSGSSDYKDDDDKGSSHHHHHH

Binder	binding result
B5	no binding (tested: 30 µM antibody with 30 nM IL-17R)
B6	no binding (tested: 30 µM antibody with 30 nM IL-17R)
B7	no binding (tested: 30 µM antibody with 30 nM IL-17R)
B8	no binding (tested: 30 µM antibody with 30 nM IL-17R)
B9	no binding (tested: 30 µM antibody with 30 nM IL-17R)
B10	no binding (tested: 30 µM antibody with 30 nM IL-17R)
